The text below walks through data of patent publication EP4700044A1, “PROTEIN ANALOGUE AND USE THEREOF” (Shanghai Duomirui Biotechnology., Ltd., priority 2023, dated 2024).

This assay addresses T1, FGFR1c and the cofactor β-Klotho (Homo sapiens, UniProt P11362+Q86Z14).
T1 construct: host or cells: iLite FGF21 assay ready cells (genetically engineered reporter gene cell line)
Nature of the assay: dual-luciferase reporter gene assay in iLite FGF21 assay ready cells. In kind it is cell-based. An excerpt:
iLite FGF21 assay ready cells (purchased from SAVR) is a genetically engineered reporter gene cell line that responds to signals downstream to FGF21 agonism through the expression of firefly luciferase. The receptor FGFR1c and the cofactor β-Klotho were co-overexpressed on the surface of iLite FGF21 assay ready cells and have undergone genetic optimization to enhance sensitivity, such that FGF21 will cause an increase in luciferase expression in a dose-response manner. The luciferase activity detection kit was purchased from Promega (catalog number #E2980).
iLite FGF21 assay ready cells were cultured adherently in basal medium (DMEM Gluta Max, purchased from Gibco) containing 10% fetal bovine serum (FBS, purchased from Gibco) and 1% penicillin/streptomycin (purchased from Gibco). For the activity determination experiment, […] cells per well and test samples such as FGF21 mutant proteins and FGF21 conjugate molecules modified with albumin-binding agent were added to all-white 96-well culture plates (purchased from Corning), and the chemiluminescence values were detected in a microplate reader according to the instructions of the luciferase activity detection kit. Finally, the half-maximal effective concentration (EC50) values of the tested samples were obtained by means of four-parameter fitting.
In general terms: A reporter such as luciferase makes a cellular process visible.

Where [1] appears, read: Example 11, four-parameter fitting.
The mark [2] stands for this setting: Example 6, four-parameter fitting.

T1 sequence (P11362 22-822): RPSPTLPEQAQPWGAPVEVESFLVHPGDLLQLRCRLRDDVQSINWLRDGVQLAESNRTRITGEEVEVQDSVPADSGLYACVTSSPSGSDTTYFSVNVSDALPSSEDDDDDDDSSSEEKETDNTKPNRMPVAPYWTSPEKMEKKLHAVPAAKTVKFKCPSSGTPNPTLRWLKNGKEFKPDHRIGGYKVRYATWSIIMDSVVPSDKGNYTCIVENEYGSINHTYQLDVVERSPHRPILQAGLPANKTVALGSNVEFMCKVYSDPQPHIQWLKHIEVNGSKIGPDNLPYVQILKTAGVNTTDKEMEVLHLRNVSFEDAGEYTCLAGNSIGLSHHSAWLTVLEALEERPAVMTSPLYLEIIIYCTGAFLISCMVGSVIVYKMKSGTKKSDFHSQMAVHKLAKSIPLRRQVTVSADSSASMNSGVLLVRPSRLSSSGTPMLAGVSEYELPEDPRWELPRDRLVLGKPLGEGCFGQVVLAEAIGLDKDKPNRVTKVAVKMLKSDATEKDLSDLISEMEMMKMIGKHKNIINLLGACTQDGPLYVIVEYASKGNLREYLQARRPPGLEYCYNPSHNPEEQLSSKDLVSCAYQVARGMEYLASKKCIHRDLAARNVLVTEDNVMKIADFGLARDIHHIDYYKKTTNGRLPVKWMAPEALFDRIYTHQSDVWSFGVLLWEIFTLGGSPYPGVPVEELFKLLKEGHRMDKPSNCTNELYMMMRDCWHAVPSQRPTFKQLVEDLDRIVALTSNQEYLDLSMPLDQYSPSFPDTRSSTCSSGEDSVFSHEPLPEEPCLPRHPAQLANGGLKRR
T1 sequence (Q86Z14 whole entry): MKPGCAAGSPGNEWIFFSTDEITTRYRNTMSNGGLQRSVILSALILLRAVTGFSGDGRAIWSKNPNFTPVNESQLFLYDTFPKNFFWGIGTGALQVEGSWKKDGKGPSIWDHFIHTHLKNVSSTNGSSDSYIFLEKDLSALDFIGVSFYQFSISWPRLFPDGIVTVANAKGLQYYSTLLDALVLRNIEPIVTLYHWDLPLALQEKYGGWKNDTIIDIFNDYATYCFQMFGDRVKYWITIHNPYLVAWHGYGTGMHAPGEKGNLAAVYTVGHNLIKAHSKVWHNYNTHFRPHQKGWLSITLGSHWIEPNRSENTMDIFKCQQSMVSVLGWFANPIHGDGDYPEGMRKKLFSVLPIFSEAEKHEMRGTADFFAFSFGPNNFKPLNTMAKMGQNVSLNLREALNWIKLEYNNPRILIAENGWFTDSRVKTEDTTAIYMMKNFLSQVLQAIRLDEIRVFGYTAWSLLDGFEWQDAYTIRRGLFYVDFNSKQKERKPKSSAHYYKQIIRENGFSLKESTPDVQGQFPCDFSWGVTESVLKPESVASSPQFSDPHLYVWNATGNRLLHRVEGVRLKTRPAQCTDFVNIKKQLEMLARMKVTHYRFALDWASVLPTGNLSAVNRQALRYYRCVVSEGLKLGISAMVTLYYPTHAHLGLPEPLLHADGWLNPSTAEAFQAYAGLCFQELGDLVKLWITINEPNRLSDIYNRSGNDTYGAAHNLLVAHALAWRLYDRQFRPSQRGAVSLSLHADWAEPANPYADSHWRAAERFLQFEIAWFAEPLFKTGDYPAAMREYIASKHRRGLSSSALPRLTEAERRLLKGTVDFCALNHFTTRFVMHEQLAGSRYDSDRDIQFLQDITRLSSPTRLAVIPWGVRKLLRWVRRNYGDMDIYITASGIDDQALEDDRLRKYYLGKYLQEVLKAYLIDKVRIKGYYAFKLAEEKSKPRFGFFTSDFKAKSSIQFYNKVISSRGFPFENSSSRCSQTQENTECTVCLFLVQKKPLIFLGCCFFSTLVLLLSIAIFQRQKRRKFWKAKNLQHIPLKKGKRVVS

B1: Compound 10.4: PAS-FGF21 dimer: PAS100FGF21 (SEQ ID NO: 16) modified by the side chain of Example 8.3 (conjugate)
chain: SPCASPAAPAPASPAAPAPSAPAAASAAAPAAASAAASAPSAASAAASPAAPSAPPAAASPAAPSAPPAAASPAAPAPASPAASAPSAPAAASPAAPAPASHPIPDSSPLLQFGGQVRQRYLYTDDAQQTEAHLEIREDGTVGGAADQSPESLLQLKALKPGVIQILGVKTSRFLCQRPDGALYGSLHFDPEACSFRERLLEDGYNVYQSEAHGLPLHLPGNKSPHRDPAPRGPARFLPLPGLPPAPPEPPGILAPQPPDVGSSDPLSMVGGSQGRSPSYES
modifications: dimer; side chain of Example 8.3
In general, EC50 refers to the midpoint of the concentration-response curve. Low values mean an effect from little substance, high ones a need for much substance. As to B1, a half-maximal effect under setting [1] (EC50) was put at 130 pM.

B2: Compound 10.1: PAS-FGF21 dimer: PAS15FGF21 (SEQ ID NO: 13) modified by the side chain of Example 8.3 (conjugate)
chain: SPCASPAAPAPASPAAHPIPDSSPLLQFGGQVRQRYLYTDDAQQTEAHLEIREDGTVGGAADQSPESLLQLKALKPGVIQILGVKTSRFLCQRPDGALYGSLHFDPEACSFRERLLEDGYNVYQSEAHGLPLHLPGNKSPHRDPAPRGPARFLPLPGLPPAPPEPPGILAPQPPDVGSSDPLSMVGGSQGRSPSYES
modifications: dimer; side chain of Example 8.3
As for B2, under setting [1], the 50% effective concentration (EC50) turned out to be 70 pM.

B3: Compound 10.3: PAS-FGF21 dimer: PAS50FGF21 (SEQ ID NO: 15) modified by the side chain of Example 8.3 (conjugate)
chain: SPCASPAAPAPASPAAPAPSAPAAASAAAPAAASAAASAPSAASAAASPAAHPIPDSSPLLQFGGQVRQRYLYTDDAQQTEAHLEIREDGTVGGAADQSPESLLQLKALKPGVIQILGVKTSRFLCQRPDGALYGSLHFDPEACSFRERLLEDGYNVYQSEAHGLPLHLPGNKSPHRDPAPRGPARFLPLPGLPPAPPEPPGILAPQPPDVGSSDPLSMVGGSQGRSPSYES
modifications: dimer; side chain of Example 8.3
B3 displayed a 50% effective concentration (EC50) under setting [1] of 20 pM.

B4: Compound 5.11: FGF21K122C mutant (SEQ NO: 8) modified by the albumin-binding agent of Example 2.3 (conjugate)
chain: HPIPDSSPLLQFGGQVRQRYLYTDDAQQTEAHLEIREDGTVGGAADQSPESLLQLKALKPGVIQILGVKTSRFLCQRPDGALYGSLHFDPEACSFRERLLEDGYNVYQSEAHGLPLHLPGNCSPHRDPAPRGPARFLPLPGLPPAPPEPPGILAPQPPDVGSSDPLSMVGGSQGRSPSYES
modifications: albumin-binding agent of Example 2.3
As for B4, under setting [2], the EC50 worked out at 2090 pM.

B5: Compound 5.3: FGF21D46C mutant (SEQ NO: 7) modified by the albumin-binding agent of Example 2.1 (conjugate)
chain: HPIPDSSPLLQFGGQVRQRYLYTDDAQQTEAHLEIREDGTVGGAACQSPESLLQLKALKPGVIQILGVKTSRFLCQRPDGALYGSLHFDPEACSFRERLLEDGYNVYQSEAHGLPLHLPGNKSPHRDPAPRGPARFLPLPGLPPAPPEPPGILAPQPPDVGSSDPLSMVGGSQGRSPSYES
modifications: albumin-binding agent of Example 2.1
The molecule B5 had an EC50 under setting [2] of 240 pM.

B6: Compound 5.13: FGF21D46C mutant (SEQ NO: 7) modified by the albumin-binding agent of Example 2.4 (conjugate)
chain: HPIPDSSPLLQFGGQVRQRYLYTDDAQQTEAHLEIREDGTVGGAACQSPESLLQLKALKPGVIQILGVKTSRFLCQRPDGALYGSLHFDPEACSFRERLLEDGYNVYQSEAHGLPLHLPGNKSPHRDPAPRGPARFLPLPGLPPAPPEPPGILAPQPPDVGSSDPLSMVGGSQGRSPSYES
modifications: albumin-binding agent of Example 2.4
For B6, the half-maximal effective concentration (EC50) under setting [2] was 1840 pM.

B7: Compound 5.12: FGF21H125C mutant (SEQ NO: 9) modified by the albumin-binding agent of Example 2.3 (conjugate)
chain: HPIPDSSPLLQFGGQVRQRYLYTDDAQQTEAHLEIREDGTVGGAADQSPESLLQLKALKPGVIQILGVKTSRFLCQRPDGALYGSLHFDPEACSFRERLLEDGYNVYQSEAHGLPLHLPGNKSPCRDPAPRGPARFLPLPGLPPAPPEPPGILAPQPPDVGSSDPLSMVGGSQGRSPSYES
modifications: albumin-binding agent of Example 2.3
As to B7, the response under setting [2] was half-maximal at 1400 pM (EC50).

B8: Compound 5.14: FGF21K122C mutant (SEQ NO: 8) modified by the albumin-binding agent of Example 2.4 (conjugate)
chain: HPIPDSSPLLQFGGQVRQRYLYTDDAQQTEAHLEIREDGTVGGAADQSPESLLQLKALKPGVIQILGVKTSRFLCQRPDGALYGSLHFDPEACSFRERLLEDGYNVYQSEAHGLPLHLPGNCSPHRDPAPRGPARFLPLPGLPPAPPEPPGILAPQPPDVGSSDPLSMVGGSQGRSPSYES
modifications: albumin-binding agent of Example 2.4
B8 came in with a concentration for a half-maximal effect (EC50) under setting [2] of 1020 pM.

B9: Compound 5.2: FGF21D38C mutant (SEQ NO: 6) modified by the albumin-binding agent of Example 2.1 (conjugate)
chain: HPIPDSSPLLQFGGQVRQRYLYTDDAQQTEAHLEIRECGTVGGAADQSPESLLQLKALKPGVIQILGVKTSRFLCQRPDGALYGSLHFDPEACSFRERLLEDGYNVYQSEAHGLPLHLPGNKSPHRDPAPRGPARFLPLPGLPPAPPEPPGILAPQPPDVGSSDPLSMVGGSQGRSPSYES
modifications: albumin-binding agent of Example 2.1
B9 had a concentration giving a half-maximal response (EC50) under setting [2] of 1990 pM.

B10: Compound 5.1: FGF21E30C mutant (SEQ NO: 5) modified by the albumin-binding agent of Example 2.1 (conjugate)
chain: HPIPDSSPLLQFGGQVRQRYLYTDDAQQTCAHLEIREDGTVGGAADQSPESLLQLKALKPGVIQILGVKTSRFLCQRPDGALYGSLHFDPEACSFRERLLEDGYNVYQSEAHGLPLHLPGNKSPHRDPAPRGPARFLPLPGLPPAPPEPPGILAPQPPDVGSSDPLSMVGGSQGRSPSYES
modifications: albumin-binding agent of Example 2.1
With B10, the midpoint of the response under setting [2], the EC50, lay at 4610 pM.

B11: Compound 10.2: PAS-FGF21 dimer: PAS30FGF21 (SEQ ID NO: 14) modified by the side chain of Example 8.3 (conjugate)
chain: SPCASPAAPAPASPAAPAPSAPAAASAAAPAHPIPDSSPLLQFGGQVRQRYLYTDDAQQTEAHLEIREDGTVGGAADQSPESLLQLKALKPGVIQILGVKTSRFLCQRPDGALYGSLHFDPEACSFRERLLEDGYNVYQSEAHGLPLHLPGNKSPHRDPAPRGPARFLPLPGLPPAPPEPPGILAPQPPDVGSSDPLSMVGGSQGRSPSYES
modifications: dimer; side chain of Example 8.3
Under setting [1], B11 had an EC50 of 40 pM.

B12: Compound 10.5: PAS-FGF21 dimer: PAS200FGF21 (SEQ ID NO: 17) modified by the side chain of Example 8.3 (conjugate)
chain: SPCASPAAPAPASPAAPAPSAPAAASAAAPAAASAAASAPSAASAAASPAAPSAPPAAASPAAPSAPPAAASPAAPAPASPAASAPSAPAAASPAAPAPASPAAPAPSAPAAASAAAPAAASAAASAPSASAAASAAAPAAASAAASAPSAASSAASPAAPSAPPAAASPAAPSAPPAAASPAAPAPASPAAPAPSAPAAAHPIPDSSPLLQFGGQVRQRYLYTDDAQQTEAHLEIREDGTVGGAADQSPESLLQLKALKPGVIQILGVKTSRFLCQRPDGALYGSLHFDPEACSFRERLLEDGYNVYQSEAHGLPLHLPGNKSPHRDPAPRGPARFLPLPGLPPAPPEPPGILAPQPPDVGSSDPLSMVGGSQGRSPSYES
modifications: dimer; side chain of Example 8.3
Take B12: under setting [1], a half-maximal effect (EC50) was put at 150 pM.

B13: Compound 12.5: Fatty acid-modified PAS-FGF21 dimer: PAS200FGF21 (SEQ ID NO: 17) modified by the side chain of Example 8.5 (conjugate)
chain: SPCASPAAPAPASPAAPAPSAPAAASAAAPAAASAAASAPSAASAAASPAAPSAPPAAASPAAPSAPPAAASPAAPAPASPAASAPSAPAAASPAAPAPASPAAPAPSAPAAASAAAPAAASAAASAPSASAAASAAAPAAASAAASAPSAASSAASPAAPSAPPAAASPAAPSAPPAAASPAAPAPASPAAPAPSAPAAAHPIPDSSPLLQFGGQVRQRYLYTDDAQQTEAHLEIREDGTVGGAADQSPESLLQLKALKPGVIQILGVKTSRFLCQRPDGALYGSLHFDPEACSFRERLLEDGYNVYQSEAHGLPLHLPGNKSPHRDPAPRGPARFLPLPGLPPAPPEPPGILAPQPPDVGSSDPLSMVGGSQGRSPSYES
modifications: dimer; fatty acid side chain of Example 8.5
Take B13: under “Example 13, four-parameter fitting”, the EC50 was found to be 90 pM.
